Substitutions are numbered along the chain they refer to. In names and notes the source's numbering stands. Each block holds one binder with its values, some of them ahead of it.
Assays:
Recombinant human HER2 [1] = biological target: T1, Recombinant human HER2 (human, UniProt P04626 23-652); experiment: calculated from the SPR Ka ratio to WT v10013;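 also: SPR at 25 °C with constructs captured on an anti-human Fc chip and HER2 extracellular domain as analyte, kinetics fitted to a 1:1 Langmuir model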
T1 construct: extracellular domain; Analyte of the SPR assays; also called HER2 ECD; ECD2 of HER2
Description: (§1) The affinity towards HER2 ECD of the samples was measured by SPR on a Biacore T200 as follows. Between 2000 and 4000 RU of anti-human Fc injected at concentration between 5 and 10 μg/ml was immobilized on a CM5 chip using standard amine coupling. Antigen-binding constructs were captured on the anti-human Fc (injected at concentration at 0.51 microg/mL in PBST, 1 min at 10 microl/min) at response levels ranging from 120-270 RU. […] HER2 dilutions were analyzed in duplicates. Sensograms were fit globally to a 1: 1 Langmuir binding model, using the software provided with the Biacore T200. All experiments were conducted at 25° C.

Recombinant human HER2 [2] = biological target: T1, Recombinant human HER2; experiment: SPR, 25 C; Ka ratio to WT v10013;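 also: constructs captured via anti-human Fc on CM5 chip, HER2 ECD as analyte in duplicate dilutions, sensorgrams globally fit to 1:1 Langmuir model on Biacore T200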
Recombinant human HER2 [3] = biological target: T1, Recombinant human HER2; experiment: SPR, Biacore T200, 25 C; variant captured on anti-human Fc, HER2 flowed;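 also: HER2 extracellular domain analyte run as duplicate dilutions over amine-coupled anti-Fc on a CM5 chip, rates from global sensorgram fitting with a 1:1 Langmuir model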
Recombinant human HER2 [4] = biological target: T2, Recombinant human HER2 (human, UniProt P04626 23-652); experiment: SPR, pre-SEC; ratio to WT v10013;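 also: SPR on Biacore T200 at 25 °C, constructs captured via anti-human Fc on CM5 chip, HER2 ECD as analyte, 1:1 Langmuir global fit, after protein A purification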
T2 construct: extracellular domain; analyte of the SPR assays; also called HER2 ECD; ECD2 of HER2
Description: as §1
(§2) The affinity of antigen-binding constructs in OA format was determined by SPR following protein A purification. […] Antigen-binding constructs in FSA format were purified by protein A affinity and SEC prior to assessment of affinity by SPR.

Recombinant human HER2 [5] = biological target: T2, Recombinant human HER2; experiment: SPR, variant captured on anti-human Fc, HER2 flowed, 25 C, post-SEC
Description: as §1, §2

Recombinant human HER2 [6] = biological target: T2, Recombinant human HER2; experiment: SPR, post-SEC; ratio to WT v10013
Description: as §1, §2

Recombinant human HER2 [7] = biological target: T2, Recombinant human HER2; experiment: SPR, variant captured on anti-human Fc, HER2 flowed, 25 C, pre-SEC;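 also: HER2 extracellular domain binding on Biacore T200, CM5 chip with amine-coupled anti-human Fc, duplicate antigen dilutions, global 1:1 Langmuir fit, measured after protein A purification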

ΔΔG (Recombinant human HER2 [1]): -0.9 kcal/mol
Ka, mut/Ka, WT (Recombinant human HER2 [2]): 5 fold
Kd (Recombinant human HER2 [3]): 3.6 nM
koff (Recombinant human HER2 [3]): 0.00045 s⁻¹
kon (Recombinant human HER2 [3]): 120000 M⁻¹ s⁻¹
B1: Variant 14057 (antibody, human IgG1, kappa)
heavy: EVQLVESGGGLVQPGGSLRLSCAASGFTFTDYTMDWVRQAPGKGLEWVADVNPNSGGSIYNQRFKGRFTLSVDRSWNTLYLQMNSLRAEDTAVYYCARNLGPWFYFDYWGQGTLVTVSSASTKGPSVFPLAPSSKSTSGGTAALGCLVKDYFPEPVTVSWNSGALTSGVHTFPAVLQSSGLYSLSSVVTVPSSSLGTQTYICNVNHKPSNTKVDKKVEPKSCDKTHTCPPCPAPELLGGPSVFLFPPKPKDTLMISRTPEVTCVVVDVSHEDPEVKFNWYVDGVEVHNAKTKPREEQYNSTYRVVSVLTVLHQDWLNGKEYKCKVSNKALPAPIEKTISKAKGQPREPQVYVYPPSRDELTKNQVSLTCLVKGFYPSDIAVEWESNGQPENNYKTTPPVLDSDGSFALVSKLTVDKSRWQQGNVFSCSVMHEALHNHYTQKSLSLSPG
light: not shown
chain: not shown
notes: OA (one-armed) format; clones 8774, 8781, 4372; also called v14057

ΔΔG (Recombinant human HER2 [1]): -0.9 kcal/mol
Ka, mut/Ka, WT (Recombinant human HER2 [2]): 4 fold
Kd (Recombinant human HER2 [3]): 3.9 nM
koff (Recombinant human HER2 [3]): 0.00092 s⁻¹
kon (Recombinant human HER2 [3]): 240000 M⁻¹ s⁻¹
B2: Variant 14058 (antibody, human IgG1, kappa)
heavy: B1 heavy with T30Q
light: not shown
chain: not shown
notes: OA (one-armed) format; clones 8784, 7917, 4372; also called v14058

ΔΔG (Recombinant human HER2 [1]): -1.7 kcal/mol
Ka, mut/Ka, WT (Recombinant human HER2 [2]): 17 fold
Kd (Recombinant human HER2 [3]): 1.1 nM
koff (Recombinant human HER2 [3]): 5.8e-05 s⁻¹
kon (Recombinant human HER2 [3]): 51000 M⁻¹ s⁻¹
B3: Variant 14041 (antibody, human IgG1, kappa)
heavy: B1 heavy with T30Y, W76K
light: not shown
chain: not shown
notes: OA (one-armed) format; clones 8785, 1811, 4372; also called v14041

Ka, mut/Ka, WT (Recombinant human HER2 [4]): 2.5
Kd (Recombinant human HER2 [5]): 7.8 nM
Ka, mut/Ka, WT (Recombinant human HER2 [6]): 2.7
Kd (Recombinant human HER2 [7]): 7.7 nM
B4: variant 12490 (antibody, human IgG1, kappa)
heavy: B1 heavy with G57Y, W76K, W103S
light: not shown
chain: not shown
notes: OA pertuzumab variant, HC G56Y (Kabat); also called v12490

ΔΔG (Recombinant human HER2 [1]): -0.3 kcal/mol
Ka, mut/Ka, WT (Recombinant human HER2 [2]): 2 fold
Kd (Recombinant human HER2 [3]): 9.2 nM
koff (Recombinant human HER2 [3]): 0.0013 s⁻¹
kon (Recombinant human HER2 [3]): 140000 M⁻¹ s⁻¹
B5: Variant 14060 (antibody, human IgG1, kappa)
heavy: B1 heavy with T30Q, W76K
light: not shown
chain: not shown
notes: OA (one-armed) format; clones 8780, 8781, 4372; also called v14060

ΔΔG (Recombinant human HER2 [1]): -1.2 kcal/mol
Ka, mut/Ka, WT (Recombinant human HER2 [2]): 8 fold
Kd (Recombinant human HER2 [3]): 2 nM
koff (Recombinant human HER2 [3]): 9.9e-05 s⁻¹
kon (Recombinant human HER2 [3]): 49000 M⁻¹ s⁻¹
B6: Variant 14031 (antibody, human IgG1, kappa)
heavy: B1 heavy with T30Q, S75W, W76K, W103S
light: not shown
chain: not shown
notes: OA (one-armed) format; clones 8778, 1811, 4372; also called v14031

Ka, mut/Ka, WT (Recombinant human HER2 [4]): 2.1
Kd (Recombinant human HER2 [5]): 10 nM
Ka, mut/Ka, WT (Recombinant human HER2 [6]): 2.1
Kd (Recombinant human HER2 [7]): 9.1 nM
B7: variant 12491 (antibody, human IgG1, kappa)
heavy: B1 heavy with G57F, W76K, W103S
light: not shown
chain: not shown
notes: OA pertuzumab variant, HC G56F (Kabat); also called v12491

ΔΔG (Recombinant human HER2 [1]): -1.5 kcal/mol
Ka, mut/Ka, WT (Recombinant human HER2 [2]): 12 fold
Kd (Recombinant human HER2 [3]): 1.4 nM
koff (Recombinant human HER2 [3]): 6.2e-05 s⁻¹
kon (Recombinant human HER2 [3]): 43000 M⁻¹ s⁻¹
B8: Variant 14038 (antibody, human IgG1, kappa)
heavy: B1 heavy with T30Q, W76E, W103S
light: not shown
chain: not shown
notes: OA (one-armed) format; clones 8782, 1811, 4372; also called v14038

ΔΔG (Recombinant human HER2 [1]): -1.7 kcal/mol
Ka, mut/Ka, WT (Recombinant human HER2 [2]): 18 fold
Kd (Recombinant human HER2 [3]): 0.91 nM
koff (Recombinant human HER2 [3]): 4e-05 s⁻¹
kon (Recombinant human HER2 [3]): 44000 M⁻¹ s⁻¹
B9: Variant 14035 (antibody, human IgG1, kappa)
heavy: B1 heavy with T30Q, W76K, W103S
light: not shown
chain: not shown
notes: OA (one-armed) format; clones 7815, 7917, 4372; also called v14035

ΔΔG (Recombinant human HER2 [1]): -2.7 kcal/mol
Ka, mut/Ka, WT (Recombinant human HER2 [2]): ~103 fold
Kd (Recombinant human HER2 [3]): ~0.19 nM
koff (Recombinant human HER2 [3]): ~1.4e-05 s⁻¹
kon (Recombinant human HER2 [3]): 77000 M⁻¹ s⁻¹
B10: Variant 14049 (antibody, human IgG1, kappa)
heavy: B1 heavy with T30Y, W103S
light: not shown
chain: not shown
notes: OA (one-armed) format; clones 8776, 7919, 4372; also called v14049

ΔΔG (Recombinant human HER2 [1]): -1.6 kcal/mol
Ka, mut/Ka, WT (Recombinant human HER2 [2]): 15 fold
Kd (Recombinant human HER2 [3]): 1.2 nM
koff (Recombinant human HER2 [3]): 5.9e-05 s⁻¹
kon (Recombinant human HER2 [3]): 47000 M⁻¹ s⁻¹
B11: Variant 14042 (antibody, human IgG1, kappa)
heavy: B1 heavy with T30Q, G57Y, W76K, W103S
light: not shown
chain: not shown
notes: OA (one-armed) format; clones 8788, 1811, 4372; also called v14042

Ka, mut/Ka, WT (Recombinant human HER2 [4]): 1.4
Kd (Recombinant human HER2 [5]): 13 nM
Ka, mut/Ka, WT (Recombinant human HER2 [6]): 1.6
Kd (Recombinant human HER2 [7]): 14 nM
B12: variant 12497 (antibody, human IgG1, kappa)
heavy: B1 heavy with Q62R, W76K, W103S
light: not shown
chain: not shown
notes: OA pertuzumab variant, HC Q61R (Kabat); also called v12497

ΔΔG (Recombinant human HER2 [1]): -1.5 kcal/mol
Ka, mut/Ka, WT (Recombinant human HER2 [2]): 13 fold
Kd (Recombinant human HER2 [3]): 1.3 nM
koff (Recombinant human HER2 [3]): 8e-05 s⁻¹
kon (Recombinant human HER2 [3]): 63000 M⁻¹ s⁻¹
B13: Variant 14030 (antibody, human IgG1, kappa)
heavy: B1 heavy with S75W, W76K, W103S
light: not shown
chain: not shown
notes: OA (one-armed) format; clones 7840, 7919, 4372; also called v14030

Ka, mut/Ka, WT (Recombinant human HER2 [4]): 3.9
Kd (Recombinant human HER2 [5]): 4.4 nM
Ka, mut/Ka, WT (Recombinant human HER2 [6]): 4.7
Kd (Recombinant human HER2 [7]): 5 nM
B14: variant 12479 (antibody, human IgG1, kappa)
heavy: B1 heavy with T30N, W76K, W103S
light: not shown
chain: not shown
notes: OA pertuzumab variant, HC T30N (Kabat); also called v12479

ΔΔG (Recombinant human HER2 [1]): -3.2 kcal/mol
Ka, mut/Ka, WT (Recombinant human HER2 [2]): ~229 fold
Kd (Recombinant human HER2 [3]): ~0.084 nM
koff (Recombinant human HER2 [3]): ~5.9e-06 s⁻¹
kon (Recombinant human HER2 [3]): 71000 M⁻¹ s⁻¹
B15: Variant 14045 (antibody, human IgG1, kappa)
heavy: B1 heavy with T30Q
light: not shown
chain: not shown
notes: OA (one-armed) format; clones 8784, 1811, 4372; also called v14045

Ka, mut/Ka, WT (Recombinant human HER2 [4]): 2.5
Kd (Recombinant human HER2 [5]): 7.3 nM
Ka, mut/Ka, WT (Recombinant human HER2 [6]): 2.9
Kd (Recombinant human HER2 [7]): 7.7 nM
B16: variant 12482 (antibody, human IgG1, kappa)
heavy: B1 heavy with T30F, W76K, W103S
light: not shown
chain: not shown
notes: OA pertuzumab variant, HC T30F (Kabat); also called v12482

ΔΔG (Recombinant human HER2 [1]): -3 kcal/mol
Ka, mut/Ka, WT (Recombinant human HER2 [2]): ~148 fold
Kd (Recombinant human HER2 [3]): ~0.11 nM
koff (Recombinant human HER2 [3]): ~8.4e-06 s⁻¹
kon (Recombinant human HER2 [3]): 76000 M⁻¹ s⁻¹
B17: Variant 14056 (antibody, human IgG1, kappa)
heavy: B1 heavy with T30Q, W103S
light: not shown
chain: not shown
notes: OA (one-armed) format; clones 8775, 8781, 4372; also called v14056

From patent US20180273635A1 (Zymeworks, published 2018)
